Assay results: publication PMC2838799, “Aptamer Antagonists of Myelin-Derived Inhibitors Promote Axon Growth”

Biological target: T1, Nogo-66 receptor (NgR)/Fc chimera (rat, UniProt Q99M75 27-447)
T1 sequence: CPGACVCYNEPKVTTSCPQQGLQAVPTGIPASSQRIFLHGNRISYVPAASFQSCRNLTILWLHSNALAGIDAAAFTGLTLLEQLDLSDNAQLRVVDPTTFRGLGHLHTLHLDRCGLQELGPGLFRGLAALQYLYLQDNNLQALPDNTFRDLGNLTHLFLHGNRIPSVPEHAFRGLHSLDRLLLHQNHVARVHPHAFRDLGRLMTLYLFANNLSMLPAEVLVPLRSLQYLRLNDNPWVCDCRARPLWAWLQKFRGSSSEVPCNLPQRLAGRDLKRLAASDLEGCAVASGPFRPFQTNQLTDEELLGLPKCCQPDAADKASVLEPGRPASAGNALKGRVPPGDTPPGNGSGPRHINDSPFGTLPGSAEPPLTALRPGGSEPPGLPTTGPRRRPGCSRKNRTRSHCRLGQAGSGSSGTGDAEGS
Experiment: filter binding; three-point estimate, data not shown; Selection buffer PBS pH 7.4, 3 mM MgCl2; RNA 0.5 nM, NgR/Fc 12.5-500 nM for Kd; competition 20 min at 37 C
Conditions: protein: commercial; tags: human IgG Fc fusion; chain copies: 2; label: 32P

B1: Clone 6 (ssRNA)
RNA: GGGUUUACCUAGGUGUAGAUGCUCUCUCUAUUUCAUUCGUAGGCUAUUGGUGCCGCAAAUACUAGCUUUACGAAAGUGACGUCUGAACUGCUUCGAAAA
binding result: binds
